Consider two molecules from patent US20160237144A1.

The target of assay [1] is TtSlyD-FKBP-A (Thermus thermophilus). The experiment in a line: SPR (Biacore), captured antibody, TtSlyD_A as analyte 0-300 nM, Langmuir fit. (SPR reads the build-up and loss of mass on a sensor chip optically.)
The target in assay [2] is TtSlyD-FKBP-B (Thermus thermophilus). The experiment in a line: SPR (Biacore), captured antibody, TtSlyD_B as analyte 0-300 nM, Langmuir fit.
The target is the same in assay [3]. In words: SPR (Biacore), 25 C; antibody (212 RU) captured on goat anti-rabbit Fc-gamma, TtSlyD-B as analyte; Langmuir fit.
The target of assay [4] is TtSlyD-FKBP-A (Thermus thermophilus). The experiment in a line: SPR (Biacore), 25 C; antibody (223 RU) captured on goat anti-rabbit Fc-gamma, TtSlyD-A as analyte; Langmuir fit.
Assay [5] shares this target. In words: SPR (Biacore B3000), antibody captured by GAR-Fcγ, scaffold in solution, 25° C.; dissociation beyond instrument limit.
The target of assay [6] is TtSlyD-FKBP-B (Thermus thermophilus). The assay is described as above.
In assay [7] the target is TtSlyD-FKBP-A (Thermus thermophilus). The experiment in a line: SPR (Biacore), 25 C; antibody captured on goat anti-rabbit Fc-gamma, TtSlyD-A as analyte; kd set to the instrument limit of 1e-05 1/s.
Assay [8] has as its target TtSlyD-FKBP-B (Thermus thermophilus). In words: SPR (Biacore), 25 C; antibody captured on goat anti-rabbit Fc-gamma, TtSlyD-B as analyte; kd set to the instrument limit of 1e-05 1/s.
The target of assay [9] is TtSlyD-FKBP-A (Thermus thermophilus). In words: SPR (Biacore), 25 C; antibody captured on goat anti-rabbit Fc-gamma, TtSlyD-A as analyte; apparent affinity, kd set to the instrument limit.
Assay [10] addresses TtSlyD-FKBP-B (Thermus thermophilus). The experiment in a line: SPR (Biacore), 25 C; antibody captured on goat anti-rabbit Fc-gamma, TtSlyD-B as analyte; apparent affinity, kd set to the instrument limit.
Assay [11] shares this target. In words: SPR (Biacore), 25 C; antibody (89 RU) captured on goat anti-rabbit Fc-gamma, TtSlyD-B as analyte; Langmuir fit.
The target in assay [12] is TtSlyD-FKBP-A (Thermus thermophilus). The experiment in a line: SPR (Biacore), 25 C; antibody (92 RU) captured on goat anti-rabbit Fc-gamma, TtSlyD-A as analyte; Langmuir fit.
The target in assay [13] is TtSlyD-FKBP clone 5F8 (Thermus thermophilus). The experiment in a line: SPR (Biacore), 25 C; 1141 RU 0712pS4D5 captured on goat anti-rabbit antibody, scaffold 5F8 (18 kDa) captured by it.
Assay [14] deals with TtSlyD-FKBP clone 3 C1 (Thermus thermophilus). In words: SPR (Biacore), 25 C; 1253 RU 0712pS4D5 captured on goat anti-rabbit antibody, scaffold 3C1 (18 kDa) captured by it.
For assay [15], the target named is TtSlyD-FKBP clone 3 F12 (Thermus thermophilus). The experiment in a line: SPR (Biacore), 25 C; 1268 RU 0712pS4D5 captured on goat anti-rabbit antibody, scaffold 3F12 (18 kDa) captured by it.
TtSlyD-FKBP clone 3 F12 (Thermus thermophilus), sequence (main, as listed by the source): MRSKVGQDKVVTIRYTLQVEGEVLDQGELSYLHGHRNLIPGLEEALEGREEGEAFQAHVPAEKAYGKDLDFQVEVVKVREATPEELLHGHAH

TtSlyD-FKBP-A (Thermus thermophilus), sequence (main, as listed by the source): as above
TtSlyD-FKBP-B (Thermus thermophilus), sequence (main, as listed by the source): as above
TtSlyD-FKBP clone 5F8 (Thermus thermophilus), sequence (main, as listed by the source): as above
TtSlyD-FKBP clone 3 C1 (Thermus thermophilus), sequence (main, as listed by the source): as above

B1: RabMab 0612pS3A8 (antibody, V domains shown)
VH: CQSVEESGGRLVTPGTPLTLTCTVSGFSLSSNAISWVRQAPGKGLEWIGIINNIGSTWYASWAKGRFTISKASSTTVDLKMTSLTTEDTATYFCARIVVNYNLGPYNLWGPGTLVTVSS
VL: AFELTQTPSSVEAAVGGTVTIKCQATENIGNALAWYQQKPGQPPKLLIYRASTLASGVPSRFKGSGSGTDFTLTISDLECADAATYYCQSYYDIYTYVFGGGTEL
Usually koff stands for a measure of how fast the partners let go of each other. High values mean a short-lived complex, low ones a long-lived complex. The term kon denotes the rate constant with which the complex forms. Low readings indicate slow association, high ones fast association. As for B1, the Kd worked out at 0.008 nM in assay [1], 0.023 nM in assay [2], 0.00787 nM in assay [9] and 0.0234 nM in assay [10]. Moreover, the MR (Molar Ratio) in assay [1] is 1.2; in assay [2], 1.4; in assay [3], 1.4; in assay [4], 1.2. Moreover, the koff in assay [1] is under 1e-05 s⁻¹; in assay [2], under 1e-05 s⁻¹; in assay [5], under 1e-05 s⁻¹; in assay [6], under 1e-05 s⁻¹; in [7], 1e-05 s⁻¹; in [8], 1e-05 s⁻¹. The kon came out at 1.27e+06 M⁻¹ s⁻¹ in [1], 428000 M⁻¹ s⁻¹ in [2], 428000 M⁻¹ s⁻¹ in assay [3] and 1.27e+06 M⁻¹ s⁻¹ in assay [4].

B2: RabMab 0712pS4D3 (antibody, V domains shown)
VH: CQSLEESGGRLVKPGGSLTLTCTVSGFSLSSYAMIWVRQAPGKGLEWIGVISSLGITYYANWAKGRFTISKASTTVDLKIASPTIGDTATYFCARGFFAGGSNYYPLWGPGTLVTVSS
VL: CQASETIINWCSWYQQKPGQPPKLLIYKASNLESGVPSRFKGSGSGTEFTLTISDLECADAATYYCQQGYGYRDLENPFGGGTEVVVKG
Turning to B2, the Kd in [1] was 0.03 nM; in assay [2] it was 0.037 nM; in assay [9] it was 0.0299 nM; in [10] it was 0.0369 nM. Moreover, the MR (Molar Ratio) worked out at 1.7 in assay [1]; 1.9 in assay [2]; 1.9 in assay [11]; 1.7 in assay [12]; 2 in assay [13]; 2 in assay [14]. In [15], the MR (Molar Ratio) came to 2. Also, the koff is under 1e-05 s⁻¹ in [1]; under 1e-05 s⁻¹ in assay [2]; under 1e-05 s⁻¹ in assay [5]; under 1e-05 s⁻¹ in [6]; 1e-05 s⁻¹ in assay [7]; 1e-05 s⁻¹ in [8]. The kon was found to be 335000 M⁻¹ s⁻¹ in assay [1], 271000 M⁻¹ s⁻¹ in [2], 271000 M⁻¹ s⁻¹ in assay [11] and 335000 M⁻¹ s⁻¹ in assay [12]. Also, the scaffold (RU) in assay [13] came out at 254 RU; in assay [14] it was 267 RU; in [15], 286 RU.
